We go through 9 molecules from US11466286B2, “Methods and compositions for conferring and/or enhancing herbicide tolerance using protoporphyrinogen oxidase or variant thereof” (FarmHannong Co., Ltd., priority 2016, dated 2022).

The test system of test [1] is A. thaliana T3 lines with CyPPO10 wild type or mutants (F360M, F360I, F360L, F360C, A167C), CyPPO13 wild type or mutants (F373M, F373C, F373I, A177C …). Nature of the test: Seed germination of A. thaliana transformants on herbicide media. It is filed as in vivo, Arabidopsis thaliana. The conditions noted are these: 25 μM glufosinate, 7 days after sowing.
Test [2] has as its system A. thaliana. Nature of the test: Seed germination of A. thaliana transformants on ½ MS media containing herbicides. It is filed as in vivo, Arabidopsis thaliana. The conditions noted are these: T3 lines; 25 μM glufosinate, 25 μM glufosinate+70 nM tiafenacil, or 25 μM glufosinate+30 nM tiafenacil+40 nM saflufenacil; 7 days after sowing. An excerpt:
T3 generation seeds of each transformant were sown in ½ MS media containing herbicides. Col-0 ecotype (wild type Arabidopsis) seeds were used as a control. The kinds of herbicides and concentration are as follows:
In FIGS. 31a to 31c, 10-3 refers to CyPPO10 wild type, 10FM-4-7 to the CyPPO10 F360M transgenic line, 10FL-1-9 to the CyPPO10 F360L transgenic line, 10FC-3-5 to the CyPPO10 F360C transgenic line, 10AC-5-4 to the CyPPO10 A167C transgenic line, 13-1 to CyPPO13 wild type, 13FM-3-1 to the CyPPO13 F373M transgenic line, 13FC-1-1 to the CyPPO13 F373C transgenic line, 13FI-2-1 to the CyPPO13 F373I transgenic line, 13AC-1-3 to the CyPPO13 A177C transgenic line, CyPPO13_ALFL to the CyPPO13 A177L+F373L transgenic line, and CyPPO13_ALFI to the CyPPO13 A177L+F373I transgenic line, respectively.

The subject of test [3] is PPO-deficient BT3 E. coli (ΔPPO). Nature of the test: Tiafenacil tolerance of BT3 E. coli transformed with CyPPO10, CyPPO13 or AtPPO1 genes (pACBB vector). The following applies: tiafenacil 0 μM; PPO function complementation. It is filed as cell-based. The procedure: After transforming PPO-deficient BT3 E. coli (ΔPPO) with CyPPO10 or CyPPO13, the transformed BT3 (ΔPPO) was cultured on LB agar plates containing PPO-inhibiting herbicide to examine the growth level of the transformed BT3 (ΔPPO). BT3 (ΔPPO) strain was obtained from Hokkaido University (Japan). The BT3 (ΔPPO) strain is deficient in hemG-type PPO and has kanamycin tolerance (refer to “Watanabe et al., Dual targeting of spinach protoporphyrinogen oxidase II to mitochondria and chloroplasts by alternative use of two in-frame […], JBC 2001 276(23):20474-20481; Che et al., Molecular Characterization and Subcellular Localization of Protoporphyrinogen Oxidase in Spinach Chloroplasts, Plant Physiol. 2000 September; 124(1):59-70”).
The cloned plasmid was added to 100 μl of BT3 competent cell (Hokkaido University; Japan) respectively, thereby transforming by a heat shock method. The transformed E. coli with each PPO gene was cultured in LB (Luria-Bertani) agar media comprising Chloramphenicol (Duchefa).
For seed culture of E. coli transformed with respective genes, each single colony of E. coli transformant as provided above was cultured in 3 ml of LB broth containing chloramphenicol overnight (220 rpm, 37° C.), and 50 to 100 μl were subcultured in a new 3 ml of LB broth, and they were cultured until absorbance (OD600) became 0.5 to 1, and they were diluted with LB broth to absorbance (OD600) of 0.5. The diluted solution was serially diluted again 5 times by a factor of one tenth with LB broth. […] The LB Agar media were incubated at 37° C., under light condition, and level of inhibiting growth was observed after 16 to 20 hours of incubation.
Plant physiol. 2003 133:736-747).

For the next test, the system named is CyPPO10. Nature of the test: PPO enzyme activity and IC50 by herbicides, CyPPO10 wild type and variants (MBP-PPO fusion). It is filed as biochemical, Thermosynechococcus elongatus BP-1. The conditions noted are these: PPO enzyme activity of CyPPO10 protein, wild type = 100. Put shortly:
(§1)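 MBP-fused wild-type and variant CyPPO10 or CyPPO13 were expressed in E. coli BL21(DE3) and purified. After a 30 min oxygen-depleting preincubation with glucose oxidase-catalase in 50 mM Tris-Cl pH 8.0, 50 mM NaCl and 0.04% Tween 20, reactions used 50 μM substrate for 30 min at room temperature. Protoporphyrin IX fluorescence (ex 405/em 633 nm) was quantified against a standard curve.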

For test [4], the system named is A. thaliana. Nature of the test: Herbicide spray on A. thaliana transformants, injury level judged at the 7th day. It is filed as in vivo, Arabidopsis thaliana. The following applies: A. thaliana transformants T2, tiafenacil 25 μM spray.
A further test relates to CyPPO13. Nature of the test: PPO enzyme activity and IC50 by herbicides, CyPPO13 wild type and variants (MBP-PPO fusion). The conditions noted are these: PPO enzyme activity of CyPPO13 protein, wild type = 100. It is filed as biochemical, Synechococcus sp. JA-3-3Ab. Put shortly:
as §1

Numbering of substitutions follows the chain as printed. Names may count otherwise.

As to `CP(=O)(O)CCC(N)C(=O)O` (centres unmarked) [glufosinate], the seed germination result in test [1] is reported as “germinated”.

B1: CyPPO10 WT: PPO protein derived from Thermosynechococcus elongatus BP-1, amino acid sequence SEQ ID NO: 2 (protein)
chain: MIEVDVAIVGGGLSGLSVAWRLQRSAPHYSGVLLEASDRLGGNITTQAAEGFVWELGPNSFAPTPALLQLIAEVGLHSELIRGDRHLPRYIYWRGELYPLEPTRPLALATSNLLSPWGKVRAALGALGFVPPYLGSGDESVDSFFRRHLGQEVAERLVAPFVSGVYAGDPQQLSAAAAFRRIAQLEKLGGSLIAGALRLRRQQPPQPKPPAQVQMRPGELGSFREGLAALPRAIAQQLKAPLHLQTPVEAITPEPKGGYLLRSGEQTWHARSVVLATPAYQTAELVAPFQPAIARALATIPYPTVACVVLAYPAGLGRSVRPGFGVLVPRGQGIRTLGTIWSSCLFPQRTPAGWQVFTSFIGGATDPDLASLREEAIVEQVQQDLTRLLDLPAAKARLLGMKVWRRAIPQYIVGYPQQWQQVTHALTQTPGLFLCSNYAEGVALGDRVEHGNRTAAAVAAYLAGGQS
modifications: Synthetic CyPPO10
For B1, the “Seed germination in media containing herbicides” value in the test on A. thaliana [2] is reported as “germinated”. Besides, the “Growth of BT3 transformant on medium containing no herbicide” value (from here on “Growth … on medium containing no herbicide”) in test [3] is reported as “recovered”. Besides, the “Activity (%)” value with CyPPO10 turned out to be 100%.

B2: CyPPO10 A167L + F360M: CyPPO10 (SEQ ID NO: 2) PPO variant (protein)
chain: B1 chain with A167L, F360M
modifications: Synthetic CyPPO10
In the case of B2, the Average injury index in the test on A. thaliana [4] was 2 (Over 20% and less than 30% of the plant was scorched). For the same molecule, in the test on CyPPO10, the “Activity (%)” value is recorded as 80%.

B3: CyPPO10 A167C + F360I: CyPPO10 (SEQ ID NO: 2) PPO variant (protein)
chain: B1 chain with A167C, F360I
modifications: Synthetic CyPPO10
In the case of B3, the Average injury index in the test with A. thaliana [4] is 2 (Over 20% and less than 30% of the plant was scorched). For the same molecule, the “Activity (%)” value with CyPPO10 was found to be 48%.

B4: CyPPO13 WT: PPO derived from Synechococcus sp. JA-3-3Ab strain, amino acid sequence SEQ ID NO: 4 (protein)
chain: MNPATPEPLNAEVVVIGAGISGLTLAWRLQQGLSARGGSPQAVLLAEASSRVGGCISTQSKDGYRWEEGPNSFTPTPALLNLIAEVGLTDQLVLADAKLPRYIYWEGALLPVPLSPAAALGSRLLSVGGKLRALQGLLGFVPPPPGHEETVRQFFRRQLGSEVAERLVEPFTSGVYAGDPDQLSAVAAFPRVAGLEERYGSLFAGALQALRQRPQPSPAAIQPPPKRGQLGNLRQGLQQLPEALAQKLGDSLRLGWRALQLKRAGELYWVGFETPEGSRWVAARQVVLALPAYEAAALLQELNPPASQLLAEILYPPVAVVALAYPQEALPQPLRGFGHLIPRSQGLRTLGTIWASCLFPERAPQGYHSFLSFLGGATDAALARRRGIPPIPALSPEERAQIAHAELSQVLLTRRAEPVYLGERLWPRAIPQYTLGHRQRIAQVQAHLASQTPGIWVCANYLDGVALGDCVRRAEALAQQLLSQV
modifications: Synthetic CyPPO13
As to B4, the “Seed germination in media containing herbicides” value in the test with A. thaliana [2] is reported as “germinated”. Further, the “Growth … on medium containing no herbicide” value in test [3] is recorded as “recovered”. Moreover, the “Activity (%)” value in the test on CyPPO13 stood at 100%.

B5: CyPPO13 F373C: CyPPO13 (SEQ ID NO: 4) PPO variant (protein)
chain: B4 chain with F373C
modifications: Synthetic CyPPO13
Take B5: the “Seed germination in media containing herbicides” value in the test on A. thaliana [2] is “germinated”. Also, the “Activity (%)” value in the test on CyPPO13 is listed as 86%.

B6: CyPPO13 F373M: CyPPO13 (SEQ ID NO: 4) PPO variant (protein)
chain: B4 chain with F373M
modifications: Synthetic CyPPO13
As for B6, in the test on A. thaliana [2], the “Seed germination in media containing herbicides” value was “germinated”. In addition, the “Activity (%)” value in the test with CyPPO13 stood at 98%.

B7: AtPPO1 WT: wild type Arabidopsis thaliana PPO1, PPO susceptible (SEQ ID NO: 5) (protein, listed as Arabidopsis thaliana)
chain: MELSLLRPTTQSLLPSFSKPNLRLNVYKPLRLRCSVAGGPTVGSSKIEGGGGTTITTDCVIVGGGISGLCIAQALATKHPDAAPNLIVTEAKDRVGGNIITREENGFLWEEGPNSFQPSDPMLTMVVDSGLKDDLVLGDPTAPRFVLWNGKLRPVPSKLTDLPFFDLMSIGGKIRAGFGALGIRPSPPGREESVEEFVRRNLGDEVFERLIEPFCSGVYAGDPSKLSMKAAFGKVWKLEQNGGSIIGGTFKAIQERKNAPKAERDPRLPKPQGQTVGSFRKGLRMLPEAISARLGSKVKLSWKLSGITKLESGGYNLTYETPDGLVSVQSKSVVMTVPSHVASGLLRPLSESAANALSKLYYPPVAAVSISYPKEAIRTECLIDGELKGFGQLHPRTQGVETLGTIYSSSLFPNRAPPGRILLLNYIGGSTNTGILSKSEGELVEAVDRDLRKMLIKPNSTDPLKLGVRVWPQAIPQFLVGHFDILDTAKSSLTSSGYEGLFLGGNYVAGVALGRCVEGAYETAIEVNNFMSRYAYK
modifications: PEPTIDE (1)..(537) Wild type AtPPO1
Consider B7, for which the “Growth … on medium containing no herbicide” value in test [3] is “recovered”.

B8: AtPPO1 SLYM: mutated A. thaliana PPO1 with amino acid substitutions Y426M and S305L, PPO-inhibiting herbicide tolerant control (protein)
chain: B7 chain with S305L, Y426M
modifications: Synthetic Mutant type AtPPO1
B8: in test [3], the “Growth … on medium containing no herbicide” value was “recovered”.
